The values that follow come from article PMC4525488, “Structure-based Mechanistic Insights into Terminal Amide Synthase in Nosiheptide-Represented Thiopeptides Biosynthesis” (Scientific Reports, 2015).

Sequences and labels used below:
B2: truncated NosA_(1-111) variant (domain or fragment, UniProt C6FX40 1-111, looked up)
chain: MTEHPAQQLYCTVVLWDLSRSAATVASLRAYLRDHAVDAYTTVPGLRQKTWISSTGPEGEQWGAVYLWDSPEAAYGRPPGVSKVVELIGYRPTERRYYSVEAATEGPAAAA
notes: NosA, terminal amide synthase of nosiheptide biosynthesis

Series [1] deals with the molecule itself. Put plainly: crystal structure; Se-Met NosA_(1-111), sitting-drop vapor diffusion at 293 K; 0.02 M magnesium chloride hexahydrate, 0.1 M HEPES pH 6.0-9.0, 22% w/v polyacrylic acid 5100; SAD, 2.40 Å.
Series [2] concerns the molecule itself. In words: SEC; Superdex 75 10/300 GL, 50 mM Tris-HCl pH 7.5, 50 mM NaCl; retention compared with gel filtration markers of 44 kDa and 17 kDa. For orientation: SEC sorts molecules by how far they enter the pores of the column.
For series [3], the target named is B2. Put plainly: ITC; ITC-200, 20 mM Tris-HCl, 150 mM NaCl, pH 7.0, 298 K; who was in the syringe is not told. To be noted: both partners purified.

B1: selenomethionine NosA_(1-111) (domain or fragment, UniProt C6FX40 1-111, looked up)
chain: MTEHPAQQLYCTVVLWDLSRSAATVASLRAYLRDHAVDAYTTVPGLRQKTWISSTGPEGEQWGAVYLWDSPEAAYGRPPGVSKVVELIGYRPTERRYYSVEAATEGPAAAA
modifications: selenomethionine in place of methionine (one Met residue at the N-terminal sequence)
notes: NosA, terminal amide synthase of nosiheptide biosynthesis; the crystallised form
B1: the binding result in series [1] is reported as “binds”. In general, stoichiometry N refers to a count of units in the complex or per binding partner. Consider B2, for which the “stoichiometry N” value in series [2] stood at 2.

B3: C-terminal NosA_(112-151) peptide (peptide, UniProt C6FX40 112-151, looked up)
chain: APFGKGLGLAFDPASPEPLTRPQEFVPPGADAFIPSRPPA
notes: NosA, terminal amide synthase of nosiheptide biosynthesis; Cloned in the pSMT3 vector; source: 15N-labelled in M9 medium for NMR
As a reminder, the Kd is the concentration at which binding is half-saturated. On to B3, for which, in series [3], binding was put at a Kd of 2.4 ± 1.2 mM.

B4: full-length NosA (wild type) (enzyme, UniProt C6FX40 1-151, looked up)
chain: MTEHPAQQLYCTVVLWDLSRSAATVASLRAYLRDHAVDAYTTVPGLRQKTWISSTGPEGEQWGAVYLWDSPEAAYGRPPGVSKVVELIGYRPTERRYYSVEAATEGPAAAAAPFGKGLGLAFDPASPEPLTRPQEFVPPGADAFIPSRPPA
notes: NosA, terminal amide synthase of nosiheptide biosynthesis; Cloned in pET28a by NheI and HindIII; also called WT NosA; WT full-length NosA
As to B4, the “stoichiometry N” value in series [2] is 2.
